Source: patent US20120328599A1

Tests used:
[1] = molecular target: FGFR1-RE kinase domain (R577E mutant, aa 458-765) (human) (UniProt P11362)
[2] = molecular target: wt-FGFR1 kinase domain (aa 458-765) (human) (UniProt P11362)

Row | in vitro trans phosphorylation of purified kinase domains with ATP and Mg2+, native gel [1] | in vitro trans phosphorylation of purified kinase domains with ATP and Mg2+, native gel [2] | Substance
1 | < 30 min |  | FGFR1-RE kinase domain (R577E mutant, aa 458-765) (from UniProt P11362) (enzyme)
2 |  | < 10 min | wt-FGFR1 kinase domain (aa 458-765) (from UniProt P11362) (enzyme)
